Laboratory results taken from publication PMC10244175, “Seeding the aggregation of TDP-43 requires post-fibrillization proteolytic cleavage” (Nature Neuroscience, 2023).

Biological target: the molecule itself
Assay: cryo-EM structure; fibrils of recombinant CP (279–360); helical reconstruction in RELION; two populations (one protofilament 4.1 Å, two protofilaments 3.7 Å); model built for G281-G351

B1: TDP-43 (279–360) core peptide (domain or fragment, UniProt Q13148 279-360, looked up)
chain: NPGGFGNQGGFGNSRGGGAGLGNNQGSNMGGGMNFGAFSINPAMMAAAQAALQSSWGMMGMLASQQNQSGPSGNNQNQGNMQ
notes: TDP-43 residues 279-360 (82 amino acids), part of the C-terminal domain; printed theoretical mass 8041.7 Da; the atomic model PDB 7Q3U covers G281-G351; The fusion is written as His6-Sumo-TDP-43 (279–360) CP; the tag is removed by Ulp-1; also called CP; CP (279–360); source: E. coli ER2566, purified (Ni-NTA, Ulp-1 cleavage, reverse-phase HPLC C18), lyophilized; fibrils formed at 50 µM in …
binding result: binds
